Assay [1] has as its target YFP-TRPV6 (human ('hTRPV6' in p-0012; the printed GenBank AF160798 is rat, from memory)). The assay is described as follows: FRET or BRET. In general terms: Bioluminescence resonance energy transfer reports proximity on the nanometre scale.
Assay [2] has as its target CFP-N198-TRPV6 (human ('hTRPV6' in p-0012; the printed GenBank AF160798 is rat, from memory)). The assay is described as follows: FRET or BRET.

Sequence of CFP-N198-TRPV6 (human ('hTRPV6' in p-0012; the printed GenBank AF160798 is rat, from memory)) (Q9R186 whole entry): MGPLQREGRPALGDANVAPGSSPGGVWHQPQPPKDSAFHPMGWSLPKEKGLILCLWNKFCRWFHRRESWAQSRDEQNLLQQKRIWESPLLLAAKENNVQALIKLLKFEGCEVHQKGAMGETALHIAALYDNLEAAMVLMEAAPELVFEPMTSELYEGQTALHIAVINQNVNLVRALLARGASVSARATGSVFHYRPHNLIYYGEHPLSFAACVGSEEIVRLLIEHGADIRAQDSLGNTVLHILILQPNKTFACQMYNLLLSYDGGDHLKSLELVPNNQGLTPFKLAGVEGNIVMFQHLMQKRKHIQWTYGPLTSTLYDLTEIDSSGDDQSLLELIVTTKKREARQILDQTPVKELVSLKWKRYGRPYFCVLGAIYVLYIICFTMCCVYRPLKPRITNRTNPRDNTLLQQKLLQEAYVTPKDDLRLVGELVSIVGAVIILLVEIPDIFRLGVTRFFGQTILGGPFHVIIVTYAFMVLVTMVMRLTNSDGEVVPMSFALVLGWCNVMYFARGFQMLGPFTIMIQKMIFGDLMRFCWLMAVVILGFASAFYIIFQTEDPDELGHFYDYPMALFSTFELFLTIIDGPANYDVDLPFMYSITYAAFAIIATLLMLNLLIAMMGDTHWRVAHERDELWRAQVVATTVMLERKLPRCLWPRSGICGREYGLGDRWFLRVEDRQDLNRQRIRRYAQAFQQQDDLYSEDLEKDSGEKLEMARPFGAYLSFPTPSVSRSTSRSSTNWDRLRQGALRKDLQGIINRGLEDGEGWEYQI
Sequence of YFP-TRPV6 (human ('hTRPV6' in p-0012; the printed GenBank AF160798 is rat, from memory)) (Q9R186 whole entry): as above

Take “CFP-TRPC4 (from UniProt Q9QUQ5-1 1-974) (natural protein)”: the FRET in assay [1] amounted to 0.02.

Regarding “YFP-N193-TRPC1 (from UniProt P48995-2 1-193) (domain or fragment)”, in assay [2], the FRET was determined as 0.11.

In assay [1], “CFP-TRPC1 (from UniProt P48995-2 1-759) (natural protein)” returned an FRET of 0.07.

With “CFP-TRPC5 (from UniProt Q9QX29 1-975) (natural protein)”, in assay [1], the FRET was determined as 0.02.

B1: CFP-TRPC3 (natural protein)
chain: MSTKVRKCKEQARVTFPAPEEEEDEGEDEGAEPQRRRRGWRGVNGGLEPRSAPSQREPHGYCPPPFSHGPDLSMEGSPSLRRMTVMREKGRRQAVRGPAFMFNDRGTSLTAEEERFLDAAEYGNIPVVRKMLEESKTLNVNCVDYMGQNALQLAVGNEHLEVTELLLKKENLARIGDALLLAISKGYVRIVEAILNHPGFAASKRLTLSPCEQELQDDDFYAYDEDGTRFSPDITPIILAAHCQKYEVVHMLLMKGARIERPHDYFCKCGDCMEKQRHDSFSHSRSRINAYKGLASPAYLSLSSEDPVLTALELSNELAKLANIEKEFKNDYRKLSMQCKDFVVGVLDLCRDSEEVEAILNGDLESAEPLEVHRHKASLSRVKLAIKYEVKKFVAHPNCQQQLLTIWYENLSGLREQTIAIKCLVVLVVALGLPFLAIGYWIAPCSRLGKILRSPFMKFVAHAASFIIFLGLLVFNASDRFEGITTLPNITVTDYPKQIFRVKTTQFTWTEMLIMVWVLGMMWSECKELWLEGPREYILQLWNVLDFGMLSIFIAAFTARFLAFLQATKAQQYVDSYVQESDLSEVTLPPEIQYFTYARDKWLPSDPQIISEGLYAIAVVLSFSRIAYILPANESFGPLQISLGRTVKDIFKFMVLFIMVFFAFMIGMFILYSYYLGAKVNAAFTTVEESFKTLFWSIFGLSEVTSVVLKYDHKFIENIGYVLYGIYNVTMVVVLLNMLIAMINSSYQEIEDDSDVEWKFARSKLWLSYFDDGKTLPPPFSLVPSPKSFVYFIMRIVNFPKCRRRRLQKDIEMGMGNSKSRLNLFTQSNSRVFESHSFNSILNQPTRYQQIMKRLIKRYVLKAQVDKENDEVNEGELKEIKQDISSLRYELLEDKSQATEELAILIHKLSEKLNPSMLRCE
As to B1, in assay [1], the FRET worked out at 0.01.

The record behind these values is PMC3471760.
